IntAct's records for PubMed 29656893

B1: Shieldin complex subunit 3 (Homo sapiens), Q6ZNX1 (parent)
chain: MTTEVILHYRPCESDPTQLPKIAEKAIQDFPTRPLSRFIPWFPYDGSKLPLRPKRSPPVISEEAAEDVKQYLTISEHDAKSHSYDCTVDLLEFQPSLKKQHLTWSHTLKEQTNSGNLGKQSEKGKQHKRRSWSISLPSNNCTKNVSPLSKKLQDSLKALNLHSLYRARWTIEHTICNSQTLEDIWTKLNQIIRHNELPSCNATIQRHLGQIWVFCDIMYCEYVGSLLKGRLALTGKINLFVHKYGVIFSM

Variants of: B1
Settings: with md2l2_human MAD2L2, Q9UI95
Sequence of md2l2_human MAD2L2, Q9UI95 (Q9UI95 whole entry): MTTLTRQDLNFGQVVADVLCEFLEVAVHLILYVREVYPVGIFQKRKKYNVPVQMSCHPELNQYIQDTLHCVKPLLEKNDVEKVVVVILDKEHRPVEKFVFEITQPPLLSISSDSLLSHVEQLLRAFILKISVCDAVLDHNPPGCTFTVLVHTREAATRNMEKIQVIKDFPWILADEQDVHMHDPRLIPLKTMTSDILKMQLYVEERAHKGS

effect of a mutation on the interaction | Variant
disrupting interaction strength | MTTEVILHYRPCESDPTQLPKIAEKAIQDFPTRPLSRFIPWFPYDGSKLPLRAKRSPAVISEEAAEDVKQYLTISEHDAKSHSYDCTVDLLEFQPSLKKQHLTWSHTLKEQTNSGNLGKQSEKGKQHKRRSWSISLPSNNCTKNVSPLSKKLQDSLKALNLHSLYRARWTIEHTICNSQTLEDIWTKLNQIIRHNELPSCNATIQRHLGQIWVFCDIMYCEYVGSLLKGRLALTGKINLFVHKYGVIFSM [P53A;P58A]
